Source: the supplement of paper PMC7877785
± gives the uncertainty stated by the source.

Assay: self-splicing fitness, log relative to wild type (ln ratio); higher = more splicing; Tetrahymena group I intron in knt gene, E. coli kanamycin selection, DiMSum; sequences stand for … in CUCUCU…GGAGGGAAAAGUUAUCAGGCAUGCACCUGGUAGCUAGUCUUUAAACCAAUAGAUUGCAUCGGUUUAAAAGGCAAGACCGUCAAAUUGCGGGAAAGGGGUCAACAGCCGUUCAGUACCAAGUCUCAGGGGAAACUUUGAGAUGGCCUUGCAAAGGGUAUGGUAAUAAGCUGACGGACAUGGUCCUAACCACGCAGCCAAGUCCUAAGUCAACAGAUCUUCUGUUGAUAUGGAUGCAGUUCACAGACUAAAUGUCGGUCGGGGAAGAUGUAUUCUUCUCAUAAGAUAUAGUCGGACCUCUCCUUAAUGGGAGCUAGCGGAUGAAGUGAUGCAACACUGGAGCCGCUGGGAACUAAUUUGUAUGCGAAAGUAUAUUGAUUAGUUUUGGAGUACUCGUGGUCG
Summary of the method: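 DiMSum derived fitness as the error-weighted combination of fold changes across replicates, kanamycin versus no kanamycin, normalised to wild type. E. coli BL21(DE3) held the library, which randomised all eight P1ex-region intron nucleotides within the knt kanamycin-resistance gene on pET-22b(+). Six replicate transformations grew overnight at 37°C or 30°C on LB agar with or without 25 μg/mL kanamycin, also containing 100 μg/mL carbenicillin, 50 μM IPTG and 0.2% rhamnose, and pooled colonies were amplicon-sequenced on an Illumina HiSeq 2500.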

| Sequence | self-splicing fitness (ln) (30 °C) | self-splicing fitness (ln) (37 °C) |
| --- | --- | --- |
| GAGCAGCAAUAUUACGCCAG | -2.49 ± 0.42 | -2.85 ± 0.34 |
| GAGCAGCAAUAUUACGCCUA | -0.758 ± 0.064 | 0.0984 ± 0.085 |
| GAGCAGCAAUAUUACGCCUU | -3.8 ± 0.32 | -1.32 ± 0.19 |
| GAGCAGCAAUAUUACGCGAA | -3.01 ± 0.25 | -1.27 ± 0.15 |
| GAGCAGCAAUAUUACGCGGC | -3.97 ± 0.25 | -1.87 ± 0.14 |
| GAGCAGCAAUAUUACGGAUA | -2.15 ± 0.22 | -2.11 ± 0.26 |
| GAGCAGCAAUAUUACGGCAG | -2.34 ± 0.16 | -1.69 ± 0.19 |
| GAGCAGCAAUAUUACGGCCU | -0.475 ± 0.07 | -0.0538 ± 0.081 |
| GAGCAGCAAUAUUACGGCUG | -3.87 ± 0.26 | -2.51 ± 0.28 |
| GAGCAGCAAUAUUACGGCUU | -4.43 ± 0.33 | -2.53 ± 0.27 |
| GAGCAGCAAUAUUACGGGAU | -3.27 ± 0.27 | -3.1 ± 0.23 |
| GAGCAGCAAUAUUACGGUAA | -1.95 ± 0.13 | -0.00417 ± 0.12 |
| GAGCAGCAAUAUUACGGUUU | -3.11 ± 0.17 | -1.84 ± 0.19 |
| GAGCAGCAAUAUUACGUGAA | -0.549 ± 0.079 | -0.526 ± 0.13 |
| GAGCAGCAAUAUUACGUUCG | -1.51 ± 0.097 | -0.474 ± 0.098 |
| GAGCAGCAAUAUUACGUUGC | -4.45 ± 0.34 | -3.41 ± 0.23 |
| GAGCAGCAAUAUUACGUUUA | -1.17 ± 0.092 | -1 ± 0.097 |
| GAGCAGCAAUAUUACGUUUU | -2.63 ± 0.092 | -2.3 ± 0.12 |
| GAGGAGCAAUAUUACGAAGG | -4.59 ± 0.46 | -2.39 ± 0.27 |
| GAGGAGCAAUAUUACGACGA | -1.2 ± 0.13 | 0.494 ± 0.13 |
| GAGGAGCAAUAUUACGAGAC | -2.67 ± 0.22 | – |
| GAGGAGCAAUAUUACGAUUU | -1.07 ± 0.1 | -0.084 ± 0.13 |
| GAGGAGCAAUAUUACGCAGC | – | -1.04 ± 0.44 |
| GAGGAGCAAUAUUACGCAUU | -2.99 ± 0.43 | -0.645 ± 0.33 |
| GAGGAGCAAUAUUACGCCGG | -3.44 ± 0.48 | -2.68 ± 0.36 |

| Sequence | self-splicing fitness (ln) (30 °C) | self-splicing fitness (ln) (37 °C) |
| --- | --- | --- |
| GAGGAGCAAUAUUACGCGUC | – | -1.75 ± 0.38 |
| GAGGAGCAAUAUUACGGAGA | -2.95 ± 0.2 | -2.25 ± 0.27 |
| GAGGAGCAAUAUUACGGCAC | -2.08 ± 0.19 | -1.64 ± 0.19 |
| GAGGAGCAAUAUUACGGGGA | -1.86 ± 0.23 | -3.17 ± 0.4 |
| GAGGAGCAAUAUUACGUCCA | -1.23 ± 0.12 | -0.83 ± 0.16 |
| GAGGAGCAAUAUUACGUCCG | -2.52 ± 0.24 | -2.24 ± 0.31 |
| GAGGAGCAAUAUUACGUGGA | -3.86 ± 0.32 | -2.98 ± 0.29 |
| GAGGAGCAAUAUUACGUUAG | -4 ± 0.27 | -1.93 ± 0.27 |
| GAGGAGCAAUAUUACGUUUA | -1.89 ± 0.26 | -1.84 ± 0.32 |
| GAGUAGCAAUAUUACGAACA | – | -1.28 ± 0.34 |
| GAGUAGCAAUAUUACGAGAG | -3.63 ± 0.24 | -3.64 ± 0.27 |
| GAGUAGCAAUAUUACGAUCG | -1.06 ± 0.11 | -0.986 ± 0.12 |
| GAGUAGCAAUAUUACGAUGC | -1.79 ± 0.23 | -0.495 ± 0.26 |
| GAGUAGCAAUAUUACGCAAC | -3.77 ± 0.37 | -2.66 ± 0.36 |
| GAGUAGCAAUAUUACGCAGC | – | -2.81 ± 0.34 |
| GAGUAGCAAUAUUACGCGCU | – | -0.5 ± 0.39 |
| GAGUAGCAAUAUUACGCGUC | -1.36 ± 0.21 | -1.26 ± 0.22 |
| GAGUAGCAAUAUUACGCUUU | -3.16 ± 0.32 | -1.39 ± 0.23 |
| GAGUAGCAAUAUUACGGAAC | -3.8 ± 0.34 | -1.79 ± 0.22 |
| GAGUAGCAAUAUUACGGACC | -1.29 ± 0.21 | -0.248 ± 0.22 |
| GAGUAGCAAUAUUACGGCUU | -2.2 ± 0.12 | -1.78 ± 0.15 |
| GAGUAGCAAUAUUACGGGCC | -2.52 ± 0.15 | -1.32 ± 0.13 |
| GAGUAGCAAUAUUACGGUAU | -2.6 ± 0.13 | -2.22 ± 0.2 |
| GAGUAGCAAUAUUACGUACA | -0.962 ± 0.2 | -0.303 ± 0.18 |
| GAGUAGCAAUAUUACGUCAA | -2.1 ± 0.19 | -1.8 ± 0.23 |

| Sequence | self-splicing fitness (ln) (30 °C) | self-splicing fitness (ln) (37 °C) |
| --- | --- | --- |
| GAGUAGCAAUAUUACGUUUU | -2.6 ± 0.22 | -2.12 ± 0.24 |
| GAUAAGCAAUAUUACGAAGU | -2.4 ± 0.18 | -1.15 ± 0.23 |
| GAUAAGCAAUAUUACGAAUA | -2.53 ± 0.22 | -1.58 ± 0.3 |
| GAUAAGCAAUAUUACGACGC | 0.303 ± 0.055 | -0.0161 ± 0.063 |
| GAUAAGCAAUAUUACGAGGG | -4.01 ± 0.39 | -2.19 ± 0.24 |
| GAUAAGCAAUAUUACGAUAG | -1.66 ± 0.15 | -1.95 ± 0.2 |
| GAUAAGCAAUAUUACGAUGG | -3.06 ± 0.31 | -0.54 ± 0.21 |
| GAUAAGCAAUAUUACGCACA | -0.364 ± 0.14 | 0.39 ± 0.18 |
| GAUAAGCAAUAUUACGCGAA | -2.31 ± 0.093 | -1.65 ± 0.11 |
| GAUAAGCAAUAUUACGCGAU | – | -2.82 ± 0.26 |
| GAUAAGCAAUAUUACGCGGA | -3.54 ± 0.22 | -0.761 ± 0.12 |
| GAUAAGCAAUAUUACGCUAA | -2.41 ± 0.24 | -2.28 ± 0.32 |
| GAUAAGCAAUAUUACGCUCG | -0.655 ± 0.15 | 0.0364 ± 0.17 |
| GAUAAGCAAUAUUACGGAGA | -3.48 ± 0.36 | -2.78 ± 0.24 |
| GAUAAGCAAUAUUACGGCGG | -2.27 ± 0.12 | -1.32 ± 0.13 |
| GAUAAGCAAUAUUACGGCUG | -0.569 ± 0.067 | 0.0614 ± 0.1 |
| GAUAAGCAAUAUUACGGUGG | -2.85 ± 0.23 | -2.24 ± 0.2 |
| GAUAAGCAAUAUUACGGUUU | -1.22 ± 0.056 | -0.908 ± 0.069 |
| GAUAAGCAAUAUUACGUCAC | – | -1.86 ± 0.27 |
| GAUAAGCAAUAUUACGUUUG | -2.07 ± 0.17 | -1.92 ± 0.17 |
| GAUCAGCAAUAUUACGAACA | 0.0135 ± 0.15 | 0.0485 ± 0.15 |
| GAUCAGCAAUAUUACGACAA | -0.267 ± 0.081 | -0.396 ± 0.089 |
| GAUCAGCAAUAUUACGACUG | -1.21 ± 0.082 | -0.166 ± 0.13 |
| GAUCAGCAAUAUUACGAGUA | -1.2 ± 0.12 | -0.817 ± 0.092 |
| GAUCAGCAAUAUUACGAUAU | -0.637 ± 0.08 | 0.658 ± 0.11 |

| Sequence | self-splicing fitness (ln) (30 °C) | self-splicing fitness (ln) (37 °C) |
| --- | --- | --- |
| GAUCAGCAAUAUUACGAUUA | -0.622 ± 0.086 | 0.0655 ± 0.1 |
| GAUCAGCAAUAUUACGCAGC | -1.64 ± 0.11 | -0.448 ± 0.13 |
| GAUCAGCAAUAUUACGCUAA | -1.11 ± 0.12 | -0.316 ± 0.15 |
| GAUCAGCAAUAUUACGCUCU | -1.3 ± 0.12 | -0.735 ± 0.15 |
| GAUCAGCAAUAUUACGGCCG | -0.635 ± 0.13 | -0.245 ± 0.14 |
| GAUCAGCAAUAUUACGUAAU | -0.0684 ± 0.098 | -0.341 ± 0.13 |
| GAUCAGCAAUAUUACGUAGU | -0.663 ± 0.1 | -0.885 ± 0.1 |
| GAUCAGCAAUAUUACGUCAU | -1.53 ± 0.094 | -0.393 ± 0.1 |
| GAUCAGCAAUAUUACGUCGA | -1.35 ± 0.084 | -0.202 ± 0.096 |
| GAUCAGCAAUAUUACGUGCA | -0.293 ± 0.072 | -0.489 ± 0.085 |
| GAUCAGCAAUAUUACGUGGC | -2.95 ± 0.21 | -0.582 ± 0.15 |
| GAUCAGCAAUAUUACGUUCC | – | -2.85 ± 0.4 |
| GAUCAGCAAUAUUACGUUCU | -2.42 ± 0.1 | -1.46 ± 0.12 |
| GAUGAGCAAUAUUACGAGGG | – | -2.15 ± 0.22 |
| GAUGAGCAAUAUUACGAUCA | -2.17 ± 0.24 | -1.31 ± 0.21 |
| GAUGAGCAAUAUUACGAUCG | -1.9 ± 0.35 | -2.32 ± 0.24 |
| GAUGAGCAAUAUUACGAUUA | -2.57 ± 0.21 | -1.4 ± 0.18 |
| GAUGAGCAAUAUUACGCAAU | -4.35 ± 0.34 | -2.46 ± 0.19 |
| GAUGAGCAAUAUUACGCACU | -2.71 ± 0.22 | -1.04 ± 0.2 |
| GAUGAGCAAUAUUACGCAGG | – | -2.24 ± 0.43 |
| GAUGAGCAAUAUUACGCCCG | -3 ± 0.36 | -2.08 ± 0.43 |
| GAUGAGCAAUAUUACGCCUA | -1.7 ± 0.29 | -0.51 ± 0.26 |
| GAUGAGCAAUAUUACGCCUG | -1.57 ± 0.26 | -2.53 ± 0.41 |
